Test results reported in the nanobody polyreactivity screen of Harvey et al. (2022).

Experiment: yeast display, Sf9 membrane polyspecificity reagent, FACS + sequencing; frameworks hold sequencing errors
Procedure, shortened: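 Nanobodies from a synthetic yeast display library (Saccharomyces cerevisiae BJ5465), induced 36–48 hours with galactose, were stained 1 hour at 4 °C with 10% biotinylated, detergent-solubilized Sf9 membrane reagent, enriched on streptavidin microbeads, then FACS-sorted. Anti-HA (expression) and streptavidin (reagent binding) fluorescence set low and high (top ~1%) gates. Polyreactivity labels come from the gate of origin. Genes were colony-PCR amplified, MiSeq 2 × 250 sequenced and filtered by CDR length.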

Sequence	polyreactivity (PSR sort gate)
QVQLVESGGGLVQAGGSLRLSCAASGSTFDVYTMGWYRQAPGKERELVATISGDDGSTYYADSEKGRFTISRDNAKNTVSLQMNSLKPEDTAVYYCAADYGGFPNYYSTGDYWGQGTQVTVSS	low polyreactivity
QVQLVESGGGLVQAGGSLRLSCAASGFTIVWYAMGWYRQATGKERELVAAISSGVSTYYADSVKGRFTISRDNAKNTVYLQMNSLKPEDTAVYYCAADREYYDEYAGYEYWGQGTQVTVSS	low polyreactivity
QVQLVESGGGLVQAGGSLRLSCAASGLTFQKNVMGWYRQAPGKERELVAAIRASSSSTYYADSVKGRFTISRDNAKNTVYLQMNSLKPEDTAVYYCAAPRLIKYDYWGQGTQVTVSS	high polyreactivity
QVQLVESGGGLVQAGGSLRFSCAASGSIFYGYTMGWYRQAPGKERELVAGISTYYADSVKGRFTISRDTAKNTVYLQMNSLKPEDTAVYYCAADYSSPTSEYDYWGQGTQVTVSS	low polyreactivity
QVQLVESGGGLVQAGGILRLSCAAAGGTLYYYMGWYRQAPGKESEFVAAINIRGDSTYYADSVKGRFTISRDNAKNTVYLQMNSLKPEDTAVYYCAADLPRRSAHYYYWGQGTLVTVSS	low polyreactivity
QVQLVESGGGLVQAGGSLRLSCAASGSILAGYAMGWYRQAPGKERELVAAISGGGGSTYYADSVKGRFTISRDNAKNTVYLQMNSLKPEDTAVYYCAAQDTYYGLFSYWIPWSGYWGQGTQVTVSS	high polyreactivity
QVQLVESVGGLVQAGGSLRLSCAASGRIFLVYVMGWYRQAPGKERELVAAISASDGSTYYADSVKGRFTISRDNAKNTVYLQMNSLKPEDTAVYYCAEWGYSLDSNSYRELNYWGQGTQVTVSS	low polyreactivity
QVQLVESGGGLVQAGGSIPLSCAASGIIFYYNTMGWYRQAPGKERELVATSTASDGSTYADSVKGRFTISSDNAKNTVYLQMNRLKPEDTAVYYCNADTRTQGPFSAPYYREMNYWGQGSQVTVSS	low polyreactivity
QVQLVESGGGLVQAGGSLRLSCAASGSIFLLYAMGWYRQAPGKERELVAAMSRGGSTYADSVKGRFTISRDNAKNTVYLQMNSLKPEVTAVYYCAASDQYRWYVHRWEDPFYYWGQGTQVTVSS	low polyreactivity
HVQLVESGGGLVQAGGSLRLSCAASGSTFGENAMGWYRQAPGKERELVAAITWGTNTYYADSVKGRFTISRDNAKNTVYLQMNSLKPEDTAVYYCAAQFQTRGWRYVYWGQGTQVSVSS	low polyreactivity
QVQLVESGGGLDQAGGRLRLSCAAYGSTFELYAMGWYRQAPGKERELVASITGDSTNYADSVKGRFTISRDNAKNTVYLQMNSLKPEDTAVYYCAAEYVPYYEYESWGQGTQVTVSS	low polyreactivity
QVQLVESGGGLVQAGGSLRLSCAASGSIFPVNAMGWYRQAPGKERELVAAISEGSTSTYYADSVKGRFTISRDNAKNTVYLQMNSLKPEDTAVYYCAADYDTGYEYWGQGTQVTVSS	low polyreactivity
QVQLVESGGGLVQPGGSLRLSCAASGGIFRSYAMGSYRQAPGKERELVAVITKSGGDTYYADSVKGRFTISRDNAKNTVYLQMNRVKPVDTAVYYCAAVYGYYTYWIPGFTWAVDYWGQGTQVTVSS	low polyreactivity
QVQLVESGGGLVQAGGSLRLSCAASGFTFGSNVMGWYRQAPGKERELVAAIRGRGGSTYYADSVKGRFTISRDNAKNTVYLQMNSLKPEDTAVYYCNAVYSYYYRWYYDFDYWGQGTQVTVSS	high polyreactivity
QVQLVESGGGVVQAGGSLRLSCAASGTTFSWYAMGGYRQAPGKERVLVAAISSGGSTNYADSVKGRFTISRDNAKNTVYLQMNSLKPEDTAVYYCAAVWSRYLISYSTGWWFEYWGQGTQVTVSS	low polyreactivity
QVQIVESGGCLVQAGGSLRLSCAASGGTIGGNAMGWYRQAPGKQREMVAAITDIGGSTYYSDSVKGRFTISRDNAKNTVSLQKNCLKPEDTSVYFCATDEASNQDATYLYYYWGQGTQVTVSS	low polyreactivity
QVQLVEKGGGLVQAGGSLRLSCAPSGGLFSKNAMGCYRQAPGKVRELVAGISSGGTTYYADSVKGRFTISRDNAKNTGYLQMNSLKPEDSAVYYCAVPYYRRLGPLNDSWGQGTQVTVSS	low polyreactivity
QVQLVESGGGLVQAGGSLRLSCAASGSIFYFYAMGWYRQAPGKERELVAASRFTGGTTYYADSVKGRFTISRDNAKNTVYLQMNSLKPEDTAVYYCAKQTSYWSRGYDYWGQGTQVTVSS	low polyreactivity
QVQLVESGGGLVQAGGSLRLSCAASGSTFTGYAMGWYRQAPGKERELVAAITRGGSTYYADSVKGRFTISRDNAKNTVYLQMNSLKPEDTAVYYCAAKPSSREPTGPRYYYWGQGTQVTVSS	high polyreactivity
QVQLVESGGGLVQAGGSLRLSCAASGRTFPPYAMGWYRQAPGKERELVAAIRWSGGDTYYADSVKGRFTISRDNAKNTVYLQMNSLKPEDTAVYYCNAVYYSYSYGYNYWGQGTQVTVSS	high polyreactivity
QVQLVESGGGLVQAGGSLRLSCAASGFTFFNYAMAWYRQAPGKERELVAAISSNGGRTYYADSVKGRFTISRDNAKNTVYLQMNSLKPEDTAVYYCATLYYGRVDYDYWGQGTQVTVSS	high polyreactivity
QVQLVESGGGLVQAGGSLRLSCAASGSIFGDNAMGWYRQAPGKERELVAAITTGASRTYYADSVKGRFTISRDNAKNTVYLQMNSLKPEDTAVYYCNASDPSWREYDYWGQGTQVIVSS	low polyreactivity

Sequence	polyreactivity (PSR sort gate)
QVQLVESGGGLVQAGGRLRLSCAASGRTFLVNAMGWYRQAPGKERELVAAISQRGGSTDYADSVKGRFTISRDNAKNTVYLQMNSLKPEDTAVYYCAVRWGYLYDYWGQVTQVTVSS	low polyreactivity
QVQLVESGGGLDQAGGSLRLSWAASAFIFGLYAMGWYRQAPGKERELVAAITSVESTKYADSVKGRFTISRDHAKNTVYLQMNSLKPEDTAVYYCATDWSLEDDYWGQGTQVTVSS	low polyreactivity
QVQLVESGGGIVQAGGSLRLSCAASGRIFLTNAKGWYRQAPGKERELVATITASGGTTYYADSVKGRFTISRDNAKNTVYLQMNSLKTEDTAVYYCAKRYYLRGYGRYYYWGQGTQVTVSS	high polyreactivity
QVQLVESGGGLVQAGGSLRLSCAASGRTFTSYPMGWYRQAPGKERELVAVITRRGGSTSYADSVKGRFTISRDNAKHTVYLQMNSLKPEDTAVYYCAAKRTWPDVKYIRYGYWGQGTQVTVSS	high polyreactivity
QVHLVESRGGLVQAGGSLRLSCAASGYTFGHYALGWYRHAPGKERELVAVITSGGSTNYADSEKGRFTISRDNAKNNVYLQMKSLKPEETAVYYCAADLYFYYVWLRDYWGQGTQVTVSS	low polyreactivity
QVQLVESGGGLVQAGGSLRLSCAASGSTFAGNAMGWYRQAPGKERELVAGITSSGARTYYADSVKGRFTISRDNAKNTVYLQMNSLKPEDTAVYYCNKYHFSPYDYWGQGTQVTVSS	high polyreactivity
QVQLQESGGGLVQAGGSLRLSCAACGNIFKYTNMGSYRQAPGKERELVATISDGASTNYADSVKGRFTISRDNAINTVYLQMNSLKPEDTAVYYCNAEGYVRFNYWGQCTQVTVSS	high polyreactivity
QVQLVESGGGLVQAGGSLRLSCAASGSTFPQNDMGWYRQAPGKERELVAAITRSAGSTYYADSVKGRFTISRDNAKNTVYLQMNSLKPEDTAVYYCNTGRQRGDGWGQGTQVTVSS	high polyreactivity
QVQLVESGGGLVQAGGSLRLSCAASGRIFGENAMGWYRQAPGKEREFVAVISISDASTYYADSVKGRFTISRDNAKNTVYLQMNSLKPEDTAVYYCNTDYINGYYIEGEPPYKFDYWGQGTQVTVSS	low polyreactivity
QFQLVESGGGLFQAGGSLRLICAASGSNFGGNTMSWYRHAPGKERDLVAAISRSGTRTYYADSVKGRFTISRDTAKNTVYLQMKSLKPVATAVYYCNAKKVLPPPYDYWGQGTQVTVST	high polyreactivity
QVQLVETGGGLVQAGGSLRLSCAASGRIFWLYAMGWYRQAPGKERELVASISSGGTTHYADSVKGRFTISRDNAKNTVYLQMNSLKPEDTAVYYCAVRPYYSWAYYYWGQGTQVTLSS	high polyreactivity
QVQLEESGGGLVQAGGSLRLSFAASGRIFRYYAMGWYRHAPGKERELVPRMSWSGGSTHYADSVKGRFTISRDNAKNTVYLQMNSLTPEDTAVYYCAADGNGYPYRAGRTYDYWGQGTQVTVSS	low polyreactivity
QVQLVESGGGLVQAGGSLRLSSAASGRIFPGYSMGWYRQAPGKERELVASISRTGRTNYADSVKGRFTNSRDNAKNTVYLPMHSLKPEDTAVYYCAAGIVVTGYDYWGQGTQVSVSS	low polyreactivity
QVQLVESGGGLVQAGGSLRLSCAASGSIFTPYAMGWYRQAPGKERELVAAISWRGGNTYYADSVKGRFTISRDNAKNTFYLQMNSLKPEETAVYYCAAEQYSVYETGSYDYWGQGTQVTVSS	low polyreactivity
QVQLVESGGGLVQAGGSLRLSCAASGRTFGYYGMGWYRQAPGKERELVASINFSSGSTFYADSVKGRFTISRDNAKNTVYLQMNSLKPEDTAVYYCAARAKAVRSYAYNYWGQGTQVTVSS	low polyreactivity
QVQLVESGGGLVQAGGSLRFSCAASGSTFFSYAMGWYRQAPGKERELVATIRGSAGRTYYADSVKGRFTISRDHANYTVYLQMNSLKPEDTAVYYCARRYWPGSAYWIYDYWGQGTQVTVSS	high polyreactivity
QVQLVESGGGLVQAGGSLRLSCAASGFIFDSYAMGWYRQAPGKERELVAAISYSGGNTYYADSVKGRFTISRDNAKNTVYLQMNSLKPEDTAVYYCAAEWSDSRWWRLWWYGEDDYWGQGTQVTVSS	high polyreactivity
QVQLVESGGGLDQAGGSLRLICDAYGSTFNWNAMGWYRQAPGKERELVAAISSGGSTNYADSVKGRFTISRDNAKNTVYLQMNSLKPEDTAVYYCARQHSRWYSGYKYNYWGQGTQVTVSS	high polyreactivity
QVQLVESGGGLVQAGGSLRLSCPASGTTIVSNAMGWYRQAPGKERDLVAAISSSGGRTSYADSVKGRFTISRDNAKNTVSLQMNSLKPEDTAVYYCAADHPPGDTYEYWGQGTQVSVSS	low polyreactivity
QVQLVESGGGLVQAGGSLRLSCAASGFTFYWYAMGWYRKAPGKERELVAAISSSGGRTYYADSVKGRFTISRDNAKNTVYLQMNSLKPEDTAVYYCAAAHTREYYWGQGTQVTVSS	high polyreactivity
QVQLVESGGGLVQAGGSLRLSCASSGITFYVYAMGWYRQAPGKERELVASISWNGGRTYYADSVKGRFTISRDNAKNTVYLQMNSLKPEDTAVYYCAARAYSYWSGLDYWGQGTQVTVSS	high polyreactivity
